Test results: article PMC10616211

Assays:
[1] = target: cytosolic fragment of MFN2 (modified, truncated human MFN2, residues 1–19 and 401–705 deleted) (human) (UniProt O95140); assay: ELISA; MFN2 coated on plates (0.1 µM); HEK293T lysate with DIAPH1-eCFP added in TBS pH 6.2, overnight 4 °C; anti-GFP-HRP; one site total and nonspecific binding fit
[2] = target: cytosolic fragment of MFN2 (modified, truncated human MFN2, residues 1–19 and 401–705 deleted) (human) (UniProt O95140); assay: ELISA; as the pH 6.2 plate assay, with purified DID as competitor (1 µM in the results; wells treated with 2 µM DID in the methods)
[3] = target: cytosolic fragment of MFN2 (modified, truncated human MFN2, residues 1–19 and 401–705 deleted) (human) (UniProt O95140); assay: ELISA; MFN2 coated on plates (0.1 µM); HEK293T lysate with DIAPH1-eCFP added in TBS pH 7.2, overnight 4 °C; anti-GFP-HRP; one site total and nonspecific binding fit

Sequence of DIAPH1-eCFP (O60610 whole entry, the tested form may be a part): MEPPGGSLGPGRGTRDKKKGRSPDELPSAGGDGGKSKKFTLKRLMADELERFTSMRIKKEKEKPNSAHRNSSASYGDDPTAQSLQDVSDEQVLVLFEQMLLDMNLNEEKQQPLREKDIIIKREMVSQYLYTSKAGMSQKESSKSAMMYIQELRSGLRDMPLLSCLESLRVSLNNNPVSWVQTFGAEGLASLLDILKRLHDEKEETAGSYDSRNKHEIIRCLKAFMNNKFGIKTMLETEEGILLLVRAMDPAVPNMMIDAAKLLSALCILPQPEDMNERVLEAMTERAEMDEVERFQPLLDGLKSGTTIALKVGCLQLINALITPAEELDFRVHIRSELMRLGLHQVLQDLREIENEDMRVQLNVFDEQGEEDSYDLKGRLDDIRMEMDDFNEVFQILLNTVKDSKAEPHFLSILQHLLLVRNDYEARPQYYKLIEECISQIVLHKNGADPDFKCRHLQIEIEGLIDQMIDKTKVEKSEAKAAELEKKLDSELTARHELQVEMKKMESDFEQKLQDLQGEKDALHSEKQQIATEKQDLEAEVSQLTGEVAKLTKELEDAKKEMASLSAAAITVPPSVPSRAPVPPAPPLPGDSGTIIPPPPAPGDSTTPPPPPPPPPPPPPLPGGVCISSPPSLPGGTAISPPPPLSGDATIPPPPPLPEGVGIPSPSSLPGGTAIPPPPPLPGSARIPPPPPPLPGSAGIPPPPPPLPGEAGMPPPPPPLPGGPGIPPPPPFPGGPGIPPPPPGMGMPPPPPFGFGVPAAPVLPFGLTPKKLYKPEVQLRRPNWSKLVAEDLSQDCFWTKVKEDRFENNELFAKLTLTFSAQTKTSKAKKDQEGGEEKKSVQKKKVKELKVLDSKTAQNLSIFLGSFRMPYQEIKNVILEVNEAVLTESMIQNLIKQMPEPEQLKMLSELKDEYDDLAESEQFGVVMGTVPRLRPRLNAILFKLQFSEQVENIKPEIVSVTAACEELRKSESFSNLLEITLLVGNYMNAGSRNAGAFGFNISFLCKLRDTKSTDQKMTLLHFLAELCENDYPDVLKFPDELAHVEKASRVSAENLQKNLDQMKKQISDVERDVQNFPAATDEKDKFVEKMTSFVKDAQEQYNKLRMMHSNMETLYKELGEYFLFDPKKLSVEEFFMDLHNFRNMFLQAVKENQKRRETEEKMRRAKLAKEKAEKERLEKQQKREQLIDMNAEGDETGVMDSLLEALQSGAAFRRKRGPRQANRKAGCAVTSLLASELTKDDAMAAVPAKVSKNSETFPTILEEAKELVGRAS

Kd [1]: 10 pM
KD in the presence of 1 µM DID [2]: 220 pM
Kd [3]: 700 pM
Substance: DIAPH1-eCFP (from UniProt O60610 1-1272) (natural protein)
